The series has as its target Prdm4-ZFD (UniProt Q80V63 582-760). Kind of series: EMSA; EMSA as previously described (ref 41); 0.8% agarose gels for nuclear complexes, 5% acrylamide for purified His-tagged Prdm4; buffer, salt, pH and temperature not given. To be noted: protein: recombinant; tags: His-HA; 5' overhang 2 nt (GG) on each strand. In general terms: In EMSA bound probe runs differently from free probe, usually more slowly.

Prdm4-ZFD, sequence (Q80V63 582-760): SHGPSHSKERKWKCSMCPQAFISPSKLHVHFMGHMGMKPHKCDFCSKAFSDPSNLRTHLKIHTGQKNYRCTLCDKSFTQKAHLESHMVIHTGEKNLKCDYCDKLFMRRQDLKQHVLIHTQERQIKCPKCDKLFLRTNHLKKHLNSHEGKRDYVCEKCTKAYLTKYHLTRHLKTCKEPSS

B1: wild-type Bahcc1 (dsDNA)
DNA 1: GGCCTGGGTCGGCCCGCGGGGATCCTGGAAACCGTCCCCGGTTTATCTCCTT
DNA 2: GGAAGGAGATAAACCGGGGACGGTTTCCAGGATCCCCGCGGGCCGACCCAGG
Consider B1, for which the binding result is listed as “binds”.

B2: ΔGAAAC Bahcc1 (dsDNA)
DNA 1: GGCCTGGGTCGGCCCGCGGGGATCCTGTCCCACGTCCCCGGTTTATCTCCTT
DNA 2: GGAAGGAGATAAACCGGGGACGTGGGACAGGATCCCCGCGGGCCGACCCAGG
For B2, the binding result is listed as “no binding”.

These data come from article PMC3811882, “The PR/SET Domain Zinc Finger Protein Prdm4 Regulates Gene Expression in Embryonic Stem Cells but Plays a Nonessential Role in the Developing Mouse Embryo”.
